{"source": "paper PMC5709735", "about": "“Real‐time detection of condensin‐driven DNA compaction reveals a multistep binding mechanism” (The EMBO Journal, 2017)", "test_system": "T1, Nc1ncnc2c1ncn2[C@@H]1O[C@H](COP(=O)(O)OP(=O)(O)OP(=O)(O)O)[C@@H](O)[C@H]1O", "T1 construct": "pentameric holocomplex overexpressed in budding yeast from galactose-inducible promoters; His12 tag on Brn1, triple StrepII tag on Smc4; gel-filtered monomeric complexes; with Condensin complex subunit 2; Condensin complex subunit 1; Condensin complex subunit 3", "test": "single-molecule magnetic tweezers, DNA compaction rate vs ATP, Michaelis-Menten fit", "assay_type": "biochemical, Saccharomyces cerevisiae", "settings": "8.6 nM condensin, tethered 20-kb DNA under constant force, 10 mM HEPES-NaOH pH 7.9, 125 mM NaCl, 5 mM MgCl2, 1 mM DTT, error is 95% confidence interval, read-out is compaction rate, not ATP turnover", "data": [{"substance": "S. cerevisiae condensin holocomplex (Smc2–Smc4–Brn1–Ycs4–Ycg1) (Saccharomyces cerevisiae S288C)", "values": [{"measurement": "Km", "result": "1400 ± 1500", "unit": "µM"}]}]}
